Data: patent publication US20170306033A1 (Amgen, published 2017)
Changes are numbered by the printed parent chain.

B1: iPS:327291 (bispecific antibody, human IgG1, kappa, lambda, N297G)
light 1: EIVLTQSPATLSLSPGERATLSCRASQSVGRSLHWYQQKPGQAPRLLIKYASQSLSGIPARFSGSGSGTDFTLTISSLEPEDFAVYYCHQSSRLPFTFGPGTKVDIKRTVAAPSVFIFPPSDEQLKSGTASVVCLLNNFYPREAKVQWKVDNALQSGNSQESVTEQDSKDSTYSLESTLTLSKADYEKHKVYACEVTHQGLSSPVTKSFNRGEC
heavy 1: not shown
light 2: QSVLTQPPSVSAAPGQKVTISCSGSSSNIGNNYVSWYQQLPGTAPKLLIYDNNKRPSGIPDRFSGSKSGTSTTLGITGLQTGDEADYYCGTWDSRLSAVVFGGGTKLTVLGQPKANPTVTLFPPSSEELQANKATLVCLISDFYPGAVTVAWKADGSPVKAGVETTKPSKQSNNKYAAKSYLSLTPEQWKSHRSYSCQVTHEGSTVEKTVAPTECS
heavy 2: QVQLVESGGGVVQPGRSLRLSCAASGFTFSSFGMHWVRQAPGKGLEWVAVISFDGSIKYSVDSVKGRFTISRDNSKNTLFLQMNSLRAEDTAVYYCARDRLNYYDSSGYYHYKYYGMAVWGQGTTVTVSSASTKGPSVFPLAPSSKSTSGGTAALGCLVKDYFPEPVTVSWNSGALTSGVHTFPAVLQSSGLYSLESVVTVPSSSLGTQTYICNVNHKPSNTKVDKKVEPKSCDKTHTCPPCPAPELLGGPSVFLFPPKPKDTLMISRTPEVTCVVVDVSHEDPEVKFNWYVDGVEVHNAKTKPCEEQYGSTYRCVSVLTVLHQDWLNGKEYKCKVSNKALPAPIEKTISKAKGQPREPQVYTLPPSRKKMTKNQVSLTCLVKGFYPSDIAVEWESNGQPENNYKTTPPVLKSDGSFFLYSKLTVDKSRWQQGNVFSCSVMHEALHNHYTQKSLSLSPGK
B2: iPS:327682 (bispecific antibody, human IgG1, kappa, N297G)
light 1: not shown
heavy 1: not shown
light 2: EIVLTQSPGTLSLSPGERATLSCRASQSVSSGYLTWYQQKPGQAPRLLIYGASSRATGIPDRFSGSGSGTDFTLTISRLEPEDFAVYYCQQYGNSLSRFGKGTKLEIKRTVAAPSVFIFPPSDEQLKSGTASVVCLLNNFYPREAKVQWKVDNALQSGNSQESVTEQDSKDSTYSLKSTLTLSKADYEKHKVYACEVTHQGLSSPVTKSFNRGEC
heavy 2: QVQLVESGGGVVQPGRSLRLSCAASGFTFSSYGMHWVRQAPGKELEWVAVIWYDGSNKYYAESVKGRFIISRDKSKNTLYLQMNSLRAEDTAVYYCARAGGIAAAGLYYYYGMDVWGQGTTVTVSSASTKGPSVFPLAPSSKSTSGGTAALGCLVKDYFPEPVTVSWNSGALTSGVHTFPAVLQSSGLYSLESVVTVPSSSLGTQTYICNVNHKPSNTKVDKKVEPKSCDKTHTCPPCPAPELLGGPSVFLFPPKPKDTLMISRTPEVTCVVVDVSHEDPEVKFNWYVDGVEVHNAKTKPCEEQYGSTYRCVSVLTVLHQDWLNGKEYKCKVSNKALPAPIEKTISKAKGQPREPQVYTLPPSRKEMTKNQVSLTCLVKGFYPSDIAVEWESNGQPENNYKTTPPVLKSDGSFFLYSKLTVDKSRWQQGNVFSCSVMHEALHNHYTQKSLSLSPGK
B3: iPS:327677 (bispecific antibody, human IgG1, kappa, N297G)
light 1: not shown
heavy 1: not shown
light 2: B2 light 2 with K101Q
heavy 2: not shown
B4: iPS:327683 (bispecific antibody, human IgG1, kappa, N297G)
light 1: DIQLTQSPSFLSASVGDRVTITCRASQSIGRSLHWYQQKPGKAPKLLIKYASQSLSGVPSRFSGSGSGTEFTLTISSLQPEDFATYYCHQSSRLPFTFGEGTKVDIKRTVAAPSVFIFPPSDEQLKSGTASVVCLLNNFYPREAKVQWKVDNALQSGNSQESVTEQDSKDSTYSLESTLTLSKADYEKHKVYACEVTHQGLSSPVTKSFNRGEC
heavy 1: not shown
light 2: B2 light 2
heavy 2: B2 heavy 2
B5: iPS:327678 (bispecific antibody, human IgG1, kappa, N297G)
light 1: not shown
heavy 1: not shown
light 2: B2 light 2 with K101Q
heavy 2: not shown
B6: iPS:327684 (bispecific antibody, human IgG1, kappa, N297G)
light 1: B1 light 1 with P100E
heavy 1: not shown
light 2: B2 light 2
heavy 2: B2 heavy 2
B7: iPS:327685 (bispecific antibody, human IgG1, kappa, N297G)
light 1: not shown
heavy 1: not shown
light 2: B2 light 2 with K101Q
heavy 2: not shown
B8: iPS:327689 (bispecific antibody, human IgG1, kappa, lambda, N297G)
light 1: not shown
heavy 1: not shown
light 2: B1 light 2
heavy 2: B1 heavy 2 with D105E, K370E
B9: iPS:327686 (bispecific antibody, human IgG1, kappa, N297G)
light 1: not shown
heavy 1: not shown
light 2: B2 light 2 with K101Q
heavy 2: not shown
B10: iPS:328001 (bispecific antibody, human IgG2, kappa, lambda)
light 1: B1 light 1
heavy 1: QVQLVESGGGVVQPGRSLRLSCAASGFTFSRFAMHWVRQAPGKGLEWVAVISYDGGNKYYAESVKGRFTISRDNSKNTLYLQMNSLRAEDTALFYCARGYDVLTGYPDYWGQGTLVTVSSASTKGPSVFPLAPCSRSTSESTAALGCLVKDYFPEPVTVSWNSGALTSGVHTFPAVLQSSGLYSLKSVVTVPSSNFGTQTYTCNVDHKPSNTKVDKTVERKCCVECPPCPAPPVAGPSVFLFPPKPKDTLMISRTPEVTCVVVDVSHEDPEVQFNWYVDGVEVHNAKTKPREEQFNSTFRVVSVLTVVHQDWLNGKEYKCKVSNKGLPAPIEKTISKTKGQPREPQVYTLPPSREEMTKNQVSLTCLVDGFYPSDIAVEWESNGQPENNYDTTPPMLDSDGSFFLYSDLTVDKSRWQQGNVFSCSVMHEALHNHYTQKSLSLSPGK
light 2: B1 light 2
heavy 2: QVQLVESGGGVVQPGRSLRLSCAASGFTFSSFGMHWVRQAPGKGLEWVAVISFDGSIKYSVDSVKGRFTISRDNSKNTLFLQMNSLRAEDTAVYYCARDRLNYYDSSGYYHYKYYGMAVWGQGTTVTVSSASTKGPSVFPLAPCSRSTSESTAALGCLVKDYFPEPVTVSWNSGALTSGVHTFPAVLQSSGLYSLESVVTVPSSNFGTQTYTCNVDHKPSNTKVDKTVERKCCVECPPCPAPPVAGPSVFLFPPKPKDTLMISRTPEVTCVVVDVSHEDPEVQFNWYVDGVEVHNAKTKPREEQFNSTFRVVSVLTVVHQDWLNGKEYKCKVSNKGLPAPIEKTISKTKGQPREPQVYTLPPSRKKMTKNQVSLTCLVKGFYPSDIAVEWESNGQPENNYKTTPPMLKSDGSFFLYSKLTVDKSRWQQGNVFSCSVMHEALHNHYTQKSLSLSPGK

Each binder was assayed against human CGRP receptor (human, UniProt Q16602 23-461; O60894 27-148) (assay: cell-based or functional assay).
Chain of human CGRP receptor (Q16602 23-461 limits assumed, chain 1 of 2): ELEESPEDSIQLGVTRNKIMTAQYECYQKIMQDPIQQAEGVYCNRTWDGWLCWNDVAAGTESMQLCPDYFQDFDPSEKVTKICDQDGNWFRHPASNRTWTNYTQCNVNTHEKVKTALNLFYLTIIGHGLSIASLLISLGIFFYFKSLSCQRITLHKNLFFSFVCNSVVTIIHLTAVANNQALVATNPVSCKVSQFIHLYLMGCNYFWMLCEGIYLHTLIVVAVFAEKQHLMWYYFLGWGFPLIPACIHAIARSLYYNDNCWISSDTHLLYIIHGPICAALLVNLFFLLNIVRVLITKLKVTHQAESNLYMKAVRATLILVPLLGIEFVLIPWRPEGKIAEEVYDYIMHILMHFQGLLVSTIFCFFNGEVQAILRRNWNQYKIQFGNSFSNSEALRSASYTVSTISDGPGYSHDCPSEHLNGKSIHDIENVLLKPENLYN
Chain of human CGRP receptor (O60894 27-148 limits assumed, chain 2 of 2): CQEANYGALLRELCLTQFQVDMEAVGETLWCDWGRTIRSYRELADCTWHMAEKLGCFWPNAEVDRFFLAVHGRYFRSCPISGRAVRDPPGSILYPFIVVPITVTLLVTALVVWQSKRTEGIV

Compared with B1, B2 is higher in “% inhibition of human CGRPR” value: 70% for the first, 75% for the second.

Going from B3 to B4, the “% inhibition of human CGRPR” value falls from 81% to 70%.

First: B5
Second: B6
The “% inhibition of human CGRPR” value of the first is higher: 84% for the first, 71% for the second.

Compared with B7, B8 is lower in “% inhibition of human CGRPR” value: 86% for the first, 78% for the second.

Compared with B9, B10 is lower in “% inhibition of human CGRPR” value: 87% for the first, 65% for the second.

What follows are binders tested against T1, human PAC1 receptor (human, UniProt P41586 21-468) (assay: cell-based or functional assay).
T1 sequence: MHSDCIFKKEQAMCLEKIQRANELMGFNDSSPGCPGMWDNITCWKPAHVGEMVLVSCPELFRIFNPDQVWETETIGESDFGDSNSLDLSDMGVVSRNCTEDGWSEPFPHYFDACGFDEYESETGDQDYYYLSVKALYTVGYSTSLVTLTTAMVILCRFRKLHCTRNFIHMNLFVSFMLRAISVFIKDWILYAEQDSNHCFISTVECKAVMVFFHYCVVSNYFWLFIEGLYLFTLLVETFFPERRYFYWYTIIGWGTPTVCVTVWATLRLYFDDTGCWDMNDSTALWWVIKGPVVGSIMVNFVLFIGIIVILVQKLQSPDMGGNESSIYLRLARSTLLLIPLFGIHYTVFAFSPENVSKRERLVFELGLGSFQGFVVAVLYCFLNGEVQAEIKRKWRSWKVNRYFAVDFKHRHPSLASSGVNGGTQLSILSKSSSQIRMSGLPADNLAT

Going from B1 to B2, the “% inhibition of human PAC1” value falls from 89% to 12%.

First: B3
Second: B4
The “% inhibition of human PAC1” value of the first is higher: 43% for the first, 30% for the second.

Compared with B5, B6 is higher in “% inhibition of human PAC1” value: 43% for the first, 74% for the second.

Compared with B7, B8 is higher in “% inhibition of human PAC1” value: 85% for the first, 86% for the second.

Compared with B9, B10 is higher in “% inhibition of human PAC1” value: 69% for the first, 95% for the second.
